The chains are these.
B1: unnamed (protein)
chain: VEIHDLHFYNRYNHTVAATIYLPENLNNSPAVIFCGGWLSSREMYSWLPEELAKRGYVVLAIDPSGNGDSYGKLPSFKIFGVRIFSVIDGPYNYINGVWSSDIYDAVTFLTTNYRVSKNVALIGHSMGGFAVTDEALKDGRIKTVIALSDADIYAIKNLKIPVMVITGDFDLIINDNLVAIPGYNAANPPKELIVIKFGTHNGFTNLIWPMPPWNHNVTLYYLSSWLDCFLREDRESCKTLEKPHKYLSTLSESKCNLDGKEKVIKRATGRRKTFTAFLLIFLFLAVLILYLRSKEG
B2: unnamed (protein)
chain: VEPLADPAKPGPYPVGVTTMLLVDHSRTDNALAGGPRSLMTEIWYPATDDTRGLPKNRLLDFFNRNTDPGFTVLLKMAFGIDLIQADKDFRNDAVRDARVRDGRFPLVLFSHGNGGIRMQNAYWCEHMASHGYIVMAPDHTGNCAVTFIDGRIFPFNDSEEGREQSRQDRPKDISFLIDAMERMNKGADSRFMGKVDLDHIGVAGHSFGGFTSTWVADAEPRVDAIVPMAGAGAERVNYTCPVMVLVATEDDTLGPERMADLRRYYDESKGPRYLVEFLNAGHFSFTEMYQLKPDFGDGCGTGTRITNGEPLTYIAMDVAFPLIKGYTTAFFGKYLKGLDGYDAYLAANHNPNELVVKSSIPETPQ
B3: unnamed (protein)
chain: CNDGSGGLEKTTELEPEDIYPLGDYYDPGKTGPYEVGVKTILLADNSRRTMLGHTKRILLTEVWYPILAPGDKINTVGDMIGQLPEWTPQILESFYGENWEDLLNIQTSAWRDAKTFLPDHPFPVIFFSHGLTALRFQNYTLCEHLASHGFLVIAPDHFDNNVFSNIPGHFTWFNPISTVASEFQRPRDIAFLVKHLQTRQSQTATFFGSYADPGRLGITGHSYGGMTSYAAGEQVAEIDAIAPLNPVILVPTTKFFTKPLLLLVGENDNLASSMFNSCEVAKRNYQTHKGNKAFLFLKNSGHYSATDACMLLPPGFINDDITGCGGAMLNPDIANEIVAAYQVAFFSITLKQDARYQDYLNKNNYPDNLDYEVSWK
B4: unnamed (protein)
chain: MSQYDPFLRGPFPAGVKTYEFEDTSRDRKLPIECWYPATSAYKGKDLDKETQDQFQLMEGFPKARQNAVRDAEIVDDSFPLIIFSHGFAGHRRQTTHFCTHLAGHGYIVASIDHIGSTLPEIMQMVMKVRKEGKLPDIEKFMEDVANDRPVDATFTIDTILAGELGPGIDPDRIGITGHSFGGWTTLVTTKSDTRIKAALPLAPGGGKSPLYGKDNPLTKMLTLDWERTVPTLYLTAEFDTLLPLDGMKDMFDRTPEPKGMVVLLNADHFHFCDGVEVVHDFFRQMGGFVGGMDPGGESEPAPMKKAKPSSELCPGKDAYTFIQGIGLAHMDAHLKGNSDAIELLKGDIAALLADRGVKVEVMQG
B5: unnamed (protein)
chain: QNSANVQNEISYDVFDYAQHPMGTIWGDPLPDAPALAARGEYMVGVQTLHLSNPNQTDVINTITSKSTVIYDRPLTVEVWYPATLKAGQVQVTVYCDFLGRYDKPGTLVPYTFLGRATRDAVPDTADGPYPLIIISHGYPGSRHLLFYLGENLASKGYVVVSIDHTDSTYKDVGHFASTLVNRSLDQKFVIREILKMPIWKDLCNPNEVGIIGYSMGGYGALRTLGAGLEDSNTIKGFLGEFASMLIAKPSDEGDPLVKAAVLFAPWGGSFGTGPTGLWDKASLAKITVPTLWIAGSQDDIAGYEGIVNLFNSSVNSRRYLLTYDNALHNVAPHPAPSIATEFGDYYRFADPVWDMWRIDSINEHFVTAFFDLYLKGDESAGSYLDMKVENSNEGVYSDQAESSTYWPGFQPRTALGLKFR
B6: unnamed (protein)
chain: VGTISFDLVDKERLELYGDKIGEERKFKAQMWYPSDDVTEGERAPWIEDGVKVSRMIPKDIGLPGFLIDYSSLIKSNSYKGVPISEKEEKYPIVIISHGWTGYRNIHTDIGELLASHGYIAISIDHTYGSLATVFDNGEVIEVDYGALPNRNETEDFLDYANALVTTYAYDSRFVLDYLEELDDSELIDGRLDLDRIGTLGHSTGGGGVVKIAIEDDRIKAIFGFDPWVEPIEDELLKIGLDVPSLFIRSEQWEEGYNNGYLTTLINHSVIKPMTYQMNGVNHLDFTMLYMYRPILQAFGFAGELDSQVSSKIQLEYVLKFFETYLKDNETNLNDIEKIYDSVIPVNY
B7: unnamed (protein)
chain: MMKDIAITFREGTIAARIYLPPPVHRAGEPHPGIIILHGYLAQQIQFDDLPRRLARKGYVAITFDMPGHGRSSGKRGYIEKDLQIDAATTVLDHLISLPNVDPKRILVIGHSLGGAMGTYLCARDPRPTAFVAIAPAGSLKRIVPLPARMLFGIPYIIHRIKKRMTGNSLYFHSIVTEHIVWADKRKVKFELERELLQHRQPVDNYRTIFLIDPRIPARKVTIPTIMFLASRDRVVPNRISRELFDNIASDDKTLLTIENSGHSIMSDWKKEDFWKMLVPWLETHIPP
B8: unnamed (protein)
chain: MEKPVVFENEGQQIVGMLHAPDGAEGLSPAVVMFHGFTGTKVEPHRLFVKTARRLAEEGFYVLRFDFRGSGDSEGEFREMTLEGEISDAKASLDFILSQPGVDRGRIGVIGLSMGGGVAACLAGRDERVRAVALWAAVSEDPPDLFQELIKTFEERPDKSVDYVDMGGNLVGKGFFEDLRNVKPLQEISGFEGPVLIVHGDNDQTVSVEHAYRFYERLKGKHPLTALHIIRGADHTFNSHEWEREVIEVTVDFMKRA

Substrate in the first data set: PET
Put plainly: Proxy for plastic degradation [HPLC-UV] (mmol). As to conditions: pH 8; 30 °C.
For B1, the “Proxy for plastic degradation” value was 0.
The same measure, in the same setting: in the case of B2 it was 0; in that of B3, 0; in that of B4, 0.
B5: the “Proxy for plastic degradation” value came out at 0.
Still for that read-out and setting: in the case of B6 it was 0; in that of B7, 0; in that of B8, 0.

The same data set, now with this note: pH 8; 60 °C.
As for B1, the “Proxy for plastic degradation” value was determined as 0.
For B2, the “Proxy for plastic degradation” value worked out at 0.
B3: the “Proxy for plastic degradation” value is 0.
On the same count and under the same terms, next, B4: 0; B5: 0; B6: 0.
Take B7: the “Proxy for plastic degradation” value turned out to be 0.
On the same count and under the same terms, next, B8: 0.

For the origin of these results see the PETadex activity labels (doi:10.1093/ismejo/wraf068).
